In patent US20110263454A1, “Methods of Identifying Functional Characteristics of Promoters, Transcription Modifying Proteins and Transcription Modulating Agents” (Salk Institute for Biological Studies, priority 2008, published 2011):

What was measured:
hMyoD promoter = assay: NHR-promoter luciferase screen, hMyoD promoter; type: cell-based, human; conditions: for Luc. act., normalized to lacZ / Normalized Luc. act., normalized to control: MyoD promoter reporter, co-transfected HR, without or with its ligand; for Normalized Luc. act., normalized to control: relative to control; for luciferase activity normalized to lacZ activity and to a control, hMyoD: hMyoD promoter-luciferase, CV-1 cells, NHR +/- ligand, control = 1.00
Method: (§1) The use, feasibility, and reproducibility of the functional NHR-promoter screen in a 48-well format have been tested validated. Briefly, there were co-expressed 50 ng of each NHR/NHR homodimer or NHR/RXR heterodimer with 100 ng promoter/luciferase construct and 50 ng of LacZ (as a control for transfection efficiency) in CV-1 cells using Fugene HD (Roche) as a transfection reagent (alternatively or additionally, a CMV-YFP construct can be used as a transfection control). Each of the nuclear hormone receptors that were used in these experiments was cloned into a pcDNA3.1 vector and comprised a C-terminally linked V5H6 tag. Twenty-four hours after transfection, appropriate ligands were added, where applicable, (see Table 5 for various ligands and concentrations and after 48 hrs, samples were assayed for luciferase and LacZ activity. To measure for luciferase activity 15 ul of sample was added to 30 ul of luciferase buffer (20 mM tricine, 1.07 mM MgCarbonate, 2.67 mM MgSulfate, 0.1 mM Naz-EDTA, 5 mM DTT, 5 mM ATP, 0.15 mg/ml CoA, 0.5 mM Luciferin), mixed briefly, and run in a Perkin Elmer Victor 5 luminometer. Thus, the functional NHR-promoter screen was used to observe the transcriptional activity of 29 promoters from various physiological pathways including inflammation, lipid and sugar metabolism, cholesterol transport, xenobiotic metabolism, and circadian rhythm.
(§2) The promoters that facilitate transcription of the indicated gene products that were tested using the protocols described herein are listed in the first row of the table. The nuclear hormone receptors and, where applicable, ligands that were assayed for their transcriptional effects on the promoters are listed in the first column of the table. The data represent the luciferase activity of each sample normalized to both the lacZ activity of that sample and to a control, e.g., no NHR or ligand, as customary in the art. As described previously, these normalizations allow the transcriptional activity of each reporter cell to be compared to other samples.
(§3) Tables 7-40 show the transcriptional effects of the hormone receptors, and, where applicable, ligands (orphan receptors are screened without ligand), on each individual promoter. […] The control data of each table are shown in their last rows.

mUCP1 promoter = assay: NHR-promoter luciferase screen, mUCP1 promoter; type: cell-based, mouse; conditions: for Luc. act., normalized to lacZ / Normalized Luc. act., normalized to control: mUCP1 promoter reporter, co-transfected HR, with or without its ligand; for Normalized Luc. act., normalized to control: relative to control; for luciferase activity normalized to lacZ activity and to a control, mUCP!: mUCP! promoter-luciferase, CV-1 cells, NHR +/- ligand, control = 1.00
Method: as §1, §2, §3

hPOMC promoter = assay: NHR-promoter luciferase screen, hPOMC promoter; type: cell-based, human; conditions: for Luc. act., normalized to lacZ / Normalized Luc. act., normalized to control: hPOMC promoter, HR/ligand component; for hPOMC promoter reporter activity: transcription factor +/- ligand, control = 1.00
Method: as §1, §2, §3

mDio2 promoter = assay: NHR-promoter luciferase screen, mDio2 promoter; type: cell-based, mouse; conditions: for Luc. act., normalized to lacZ / Normalized Luc. act., normalized to control: Dio2, HR component without or with its ligand; for mDio2 promoter reporter activity: transcription factor +/- ligand, control = 1.00
Method: as §1, §2, §3

hTNFa promoter = assay: NHR-promoter luciferase screen, hTNFa promoter; type: cell-based, human; conditions: for Luc. act., normalized to lacZ / Normalized Luc. act., normalized to control: TNFa promoter, HR component without or with ligand; for hTNFa promoter reporter activity: transcription factor +/- ligand, control = 1.00
Method: as §1, §2, §3

SREBP1c promoter = assay: NHR-promoter luciferase screen, SREBP1c promoter; type: cell-based, mouse; conditions: for Luc. act., normalized to lacZ / Normalized Luc. act., normalized to control: SREBP1c promoter, HR component without or with ligand; for mSREBP1-c promoter reporter activity: transcription factor +/- ligand, control = 1.00
Method: as §1, §2, §3

Molecule	Luc. act., normalized to lacZ (hMyoD promoter)	Normalized Luc. act., normalized to control (hMyoD promoter)	luciferase activity normalized to lacZ activity and to a control, hMyoD (hMyoD promoter)	Luc. act., normalized to lacZ (mUCP1 promoter)	Normalized Luc. act., normalized to control (mUCP1 promoter)	luciferase activity normalized to lacZ activity and to a control, mUCP! (mUCP1 promoter)	Luc. act., normalized to lacZ (hPOMC promoter)	Normalized Luc. act., normalized to control (hPOMC promoter)	hPOMC promoter reporter activity (hPOMC promoter)	Luc. act., normalized to lacZ (mDio2 promoter)	Normalized Luc. act., normalized to control (mDio2 promoter)	mDio2 promoter reporter activity (mDio2 promoter)	Luc. act., normalized to lacZ (hTNFa promoter)	Normalized Luc. act., normalized to control (hTNFa promoter)	hTNFa promoter reporter activity (hTNFa promoter)	Luc. act., normalized to lacZ (SREBP1c promoter)	Normalized Luc. act., normalized to control (SREBP1c promoter)	mSREBP1-c promoter reporter activity (SREBP1c promoter)	regulation of the SREBP1c promoter (SREBP1c promoter; FIG. 2b, in words)
ERR1: Estrogen Related Receptor α (NR3B1, ERRa), cDNA driver	69.1	1.1	1.09	3.9	0.9	0.88	2.7	0.6	0.63	34.6	2.2	2.20	1234.7	1.3	1.26	316.8	1.0	0.98	–
HNF4a: Hepatocyte Nuclear Factor α (NR2A1), cDNA driver (protein, UniProt P41235 1-474, looked up) Hepatocyte nuclear factor …: MRLSKTLVDMDMADYSAALDPAYTTLEFENVQVLTMGNDTSPSEGTNLNAPNSLGVSALCAICGDRATGKHYGASSCDGCKGFFRRSVRKNHMYSCRFSRQCVVDKDKRNQCRYCRLKKCFRAGMKKEAVQNERDRISTRRSSYEDSSLPSINALLQAEVLSRQITSPVSGINGDIRAKKIASIADVCESMKEQLLVLVEWAKYIPAFCELPLDDQVALLRAHAGEHLLLGATKRSMVFKDVLLLGNDYIVPRHCPELAEMSRVSIRILDELVLPFQELQIDDNEYAYLKAIIFFDPDAKGLSDPGKIKRLRSQVQVSLEDYINDRQYDSRGRFGELLLLLPTLQSITWQMIEQIQFIKLFGMAKIDNLLQEMLLGGSPSDAPHAHHPLHPHLMQEHMGTNVIVANTMPTHLSNGQMCEWPRPRGQAATPETPQPSPPGGSGSEPYKLLPGAVATIVKPLSAIPQPTITKQEVI	65.5	1.0	1.03	2.8	0.6	0.63	3.5	0.8	0.81	33.6	2.1	2.14	852.9	0.9	0.87	263.6	0.8	0.82	–
RORa: RAR-related Orphan Receptor α (NR1F1), cDNA driver (protein, UniProt P35398 1-523, looked up) Nuclear receptor ROR-alpha: MESAPAAPDPAASEPGSSGADAAAGSRETPLNQESARKSEPPAPVRRQSYSSTSRGISVTKKTHTSQIEIIPCKICGDKSSGIHYGVITCEGCKGFFRRSQQSNATYSCPRQKNCLIDRTSRNRCQHCRLQKCLAVGMSRDAVKFGRMSKKQRDSLYAEVQKHRMQQQQRDHQQQPGEAEPLTPTYNISANGLTELHDDLSNYIDGHTPEGSKADSAVSSFYLDIQPSPDQSGLDINGIKPEPICDYTPASGFFPYCSFTNGETSPTVSMAELEHLAQNISKSHLETCQYLREELQQITWQTFLQEEIENYQNKQREVMWQLCAIKITEAIQYVVEFAKRIDGFMELCQNDQIVLLKAGSLEVVFIRMCRAFDSQNNTVYFDGKYASPDVFKSLGCEDFISFVFEFGKSLCSMHLTEDEIALFSAFVLMSADRSWLQEKVKIEKLQQKIQLALQHVLQKNHREDGILTKLICKVSTLRALCGRHTEKLMAFKAIYPDIVRLHFPPLYKELFTSEFEPAMQIDG	47.3	0.7	0.75	1.7	0.4	0.38	1.6	0.4	0.38	47.2	3.0	3.01	607.5	0.6	0.62	410.8	1.3	1.28	–
LXRb: Liver X Receptor β (NR1H2), cDNA driver (protein, UniProt P55055 1-460, looked up) Oxysterols receptor LXR-beta: MSSPTTSSLDTPLPGNGPPQPGAPSSSPTVKEEGPEPWPGGPDPDVPGTDEASSACSTDWVIPDPEEEPERKRKKGPAPKMLGHELCRVCGDKASGFHYNVLSCEGCKGFFRRSVVRGGARRYACRGGGTCQMDAFMRRKCQQCRLRKCKEAGMREQCVLSEEQIRKKKIRKQQQESQSQSQSPVGPQGSSSSASGPGASPGGSEAGSQGSGEGEGVQLTAAQELMIQQLVAAQLQCNKRSFSDQPKVTPWPLGADPQSRDARQQRFAHFTELAIISVQEIVDFAKQVPGFLQLGREDQIALLKASTIEIMLLETARRYNHETECITFLKDFTYSKDDFHRAGLQVEFINPIFEFSRAMRRLGLDDAEYALLIAINIFSADRPNVQEPGRVEALQQPYVEALLSYTRIKRPQDQLRFPRMLMKLVSLRTLSSVHSEQVFALRLQDKKLPPLLSEIWDVHE	54.6	0.9	0.86	17.2	3.9	3.88	6.3	1.5	1.46	18.1	1.2	1.15	866.1	0.9	0.88	4020.7	12.5	12.48	specific and strong activation
RORg: RAR-related Orphan Receptor γ (NR1F3), cDNA driver (protein, UniProt P51449 1-518, looked up) Nuclear receptor ROR-gamma: MDRAPQRQHRASRELLAAKKTHTSQIEVIPCKICGDKSSGIHYGVITCEGCKGFFRRSQRCNAAYSCTRQQNCPIDRTSRNRCQHCRLQKCLALGMSRDAVKFGRMSKKQRDSLHAEVQKQLQQRQQQQQEPVVKTPPAGAQGADTLTYTLGLPDGQLPLGSSPDLPEASACPPGLLKASGSGPSYSNNLAKAGLNGASCHLEYSPERGKAEGRESFYSTGSQLTPDRCGLRFEEHRHPGLGELGQGPDSYGSPSFRSTPEAPYASLTEIEHLVQSVCKSYRETCQLRLEDLLRQRSNIFSREEVTGYQRKSMWEMWERCAHHLTEAIQYVVEFAKRLSGFMELCQNDQIVLLKAGAMEVVLVRMCRAYNADNRTVFFEGKYGGMELFRALGCSELISSIFDFSHSLSALHFSEDEIALYTALVLINAHRPGLQEKRKVEQLQYNLELAFHHHLCKTHRQSILAKLPPKGKLRSLCSQHVERLQIFQHLHPIVVQAAFPPLYKELFSTETESPVGLSK	86.5	1.4	1.36	2.8	0.6	0.62	2.1	0.5	0.50	58.7	3.7	3.74	1152.0	1.2	1.17	644.8	2.0	2.00	–
